The record followed here is publication doi:10.1101/2025.05.01.651538.

One data set concerns KDM5ACAT. As to the kind of experiment: EMSA. As to conditions: Nucleosome EMSA: 100 nM nucleosome, 50 mM HEPES pH 7.5, 50 mM KCl, 1 mM BME, 0.01% Tween-20, 0.01% BSA, 5% sucrose, 1 h on ice, DNA EMSA: 100 nM DNA, TE ….
Data set [1] has as its target acidic patch mutant (APM) H3K4me3 147bp nucleosome (human).
Data set [2] has as its target acidic patch mutant (APM) unmodified 147bp nucleosome (H2A E61A, E64S, N68A, D72S, N89A, D90A, E91S) (human). The experiment in a line: native gel or EMSA; direct binding: 100 nM nucleosome, varying concentrations of KDM5A; 50 mM HEPES pH 7.5, 50 mM KCl, 1 mM BME, 0.01% Tween-20, 0.01% BSA, 5% sucrose; 1 hour on ice; 7.5% gel at 4°C, SYBR gold; fit with Hill slope.
In data set [3] the target is acidic patch mutant (APM) H3K4me3 147bp nucleosome (human). Described as above.
In data set [4] the target is acidic patch mutant (APM) unmodified 147bp nucleosome (H2A E61A, E64S, N68A, D72S, N89A, D90A, E91S). As to the kind of experiment: EMSA. As to conditions: 0-32 µM KDM5A^MutR titrated against APM 147bp nucleosome. In general terms: In EMSA bound probe runs differently from free probe, usually more slowly.

What is called Kd is a measure of binding affinity in units of concentration.

Chain of KDM5A^CAT (KDM5A 1–801, minimal catalytically active construct) (P29375 1-801): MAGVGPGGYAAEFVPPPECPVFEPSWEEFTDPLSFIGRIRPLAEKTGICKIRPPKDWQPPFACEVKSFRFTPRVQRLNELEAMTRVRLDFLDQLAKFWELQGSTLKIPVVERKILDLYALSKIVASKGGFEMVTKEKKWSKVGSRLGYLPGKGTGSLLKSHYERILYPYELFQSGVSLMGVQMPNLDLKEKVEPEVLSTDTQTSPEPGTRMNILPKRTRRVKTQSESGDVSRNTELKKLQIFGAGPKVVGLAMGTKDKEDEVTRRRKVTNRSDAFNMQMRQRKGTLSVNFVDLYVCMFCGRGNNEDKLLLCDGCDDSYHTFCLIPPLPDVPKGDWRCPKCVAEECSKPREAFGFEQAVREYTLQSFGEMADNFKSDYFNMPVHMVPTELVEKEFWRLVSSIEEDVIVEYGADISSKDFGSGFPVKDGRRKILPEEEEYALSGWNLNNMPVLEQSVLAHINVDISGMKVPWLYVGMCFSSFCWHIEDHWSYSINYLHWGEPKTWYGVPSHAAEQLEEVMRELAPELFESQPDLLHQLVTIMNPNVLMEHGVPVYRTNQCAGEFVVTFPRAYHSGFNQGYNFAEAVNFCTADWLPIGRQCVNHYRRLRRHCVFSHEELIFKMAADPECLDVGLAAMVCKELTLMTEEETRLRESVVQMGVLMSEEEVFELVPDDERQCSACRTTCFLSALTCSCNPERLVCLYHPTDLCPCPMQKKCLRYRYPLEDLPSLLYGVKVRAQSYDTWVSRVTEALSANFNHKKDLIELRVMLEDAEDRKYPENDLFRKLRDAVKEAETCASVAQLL

147bp APM nucleosome, unmodified: the binding signal in the data set with KDM5ACAT (H2A E61A;E64S;N68A;D72S;N89A;D90A;E91S, scale: fold loss in affinity vs wild-type 147bp nucleosome) is 3.
Regarding 147bp nucleosome, wild-type unmodified, the binding signal with KDM5ACAT (scale: fold higher affinity than APM 147bp nucleosome) was 3.
As to H3K4me3 APM nucleosome, the binding signal in the data set with KDM5ACAT (H3K4me3, H2A E61A;E64S;N68A;D72S;N89A;D90A;E91S, scale: fold lower affinity vs wild-type H3K4me3 nucleosome) was 2.
As to “KDM5A^CAT (KDM5A 1–801, minimal catalytically active construct) (from UniProt P29375 1-801) (domain or fragment)”, the fold decrease in demethylation of H3K4me3 on APM 147bp nucleosomes relative to wild-type nucleosomes, western blot, single turnover (5 μM KDM5A enzyme, 50 nM substrate) in data set [1] was determined as 9 fold. Further, the fold loss in affinity relative to wild-type 147bp nucleosome in data set [2] was 3 fold. In addition, the fold lower affinity relative to wild-type H3K4me3 nucleosome in data set [3] was 2 fold.
In data set [4], “KDM5A^CAT (KDM5A 1–801, minimal catalytically active construct) (from UniProt P29375) R210A; R217A; R219A; R220A; R232A; R264A; R265A; R266A; R271A; R280A; R282A” showed a Kd of 14 µM.
